Measurements reported in the supplement of paper PMC5998384.

Experiments:
HeLa Kyoto [1] = assay: solubility change mitosis vs G1/S (difference of NP-40 vs SDS log2 ratios) (log2 ratio difference); higher = more soluble in mitosis
HeLa Kyoto [2] = assay: melting temperature (median over replicates), in situ; higher = more thermally stable
HeLa Kyoto [3] = assay: thermal stability score vs G1/S (z-score of summed log2 fold changes over temperatures); higher = more thermally stable than in G1/S
HeLa Kyoto [4] = assay: solubility in G1/S (NP-40 vs SDS abundance) (log2 ratio); higher = more soluble; conditions: cell cycle stage: G1/S
[5] = cell cycle stage: early G1 (4.5 h after nocodazole release)
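Wherever melting temperature (median over replicates), in situ is given: HeLa Kyoto cells synchronized by double thymidine or nocodazole block, proteins quantified by TMT10plex mass spectrometry, three independent biological replicates.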
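Wherever solubility change mitosis vs G1/S (difference of NP-40 vs SDS log2 ratios) is given: synchronized HeLa Kyoto cells (double thymidine block for G1/S, nocodazole release for mitosis), protein amounts in NP-40 versus SDS lysates quantified by mass spectrometry, three biological replicates.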
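Wherever solubility in G1/S (NP-40 vs SDS abundance) is given: HeLa Kyoto cells arrested at G1/S by double thymidine block, proteins quantified by TMT10plex mass spectrometry in mild NP-40 versus SDS extracts, three biological replicates.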
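Wherever thermal stability score vs G1/S (z-score of summed log2 fold changes over temperatures) is given: synchronized HeLa Kyoto cells, proteins quantified by TMT10plex mass spectrometry, three biological replicates, mitosis taken 0.5 h after nocodazole release, G1/S directly after double thymidine block.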

Row | Substance | solubility change mitosis (log2) (HeLa Kyoto [1]) | melting temperature (HeLa Kyoto [2]; cell cycle stage: G1/S) | melting temperature (HeLa Kyoto [2]; cell cycle stage: mitosis) | thermal stability score (HeLa Kyoto [3]; [5]) | thermal stability score (HeLa Kyoto [3]; cell cycle stage: mitosis) | solubility in G1/S (log2) (HeLa Kyoto [4])
1 | MFSKFTSILQHAVEALAPSLPLQEDFVYHWKAITHYYIETSDDKAPVTDTNIPSHLEQMLDILVQEENERESGETGPCMEYLLHHKILETLYTLGKADCPPGMKQQVLVFYTKLLGRIRQPLLPHINVHRPVQKLIRLCGEVLATPTENEEIQFLCIVCAKLKQDPYLVNFFLENKMKSLASKGVPNVISEDTLKGQDSLSTDTGQSRQPEELSGATGMEQTELEDEPPHQMDHLSTSLDNLSVTSLPEASVVCPNQDYNLVNSLLNLTRSPDGRIAVKACEGLMLLVSLPEPAAAKCLTQSTCLCELLTDRLASLYKALPQSVDPLDIETVEAINWGLDSYSHKEDASAFPGKRALISFLSWFDYCDQLIKEAQKTAAVALAKAVHERFFIGVMEPQLMQTSEMGILTSTALLHRIVRQVTSDVLLQEMVFFILGEQREPETLAEISRHPLRHRLIEHCDHISDEISIMTLRMFEHLLQKPNEHILYNLVLRNLEERNYTEYKPLCPEDKDVVENGLIAGAVDLEEDPLFTDISPENTLPNQEWLSSSPPATPDHPKNDGKTEVHKIVNSFLCLVPDDAKSSYHVEGTGYDTYLRDAHRQFRDYCAICLRWEWPGSPKALEKCNLEAAFFEGHFLKVLFDRMGRILDQPYDVNLQVTSVLSRLSLFPHPHIHEYLLDPYVNLAPGCRSLFSVIVRVVGDLMLRIQRIQDFTPKLLLVRKRLLGLEPEGPIIDHITLLEGVIVLEEFCKELAAIAFVKYHASSTP [FAM160B1] | -0.212 | 52.1 °C | 51.1 °C | -0.501 | -0.078 | 0.0585
2 | MAARCSTRWLLVVVGTPRLPAISGRGARPPREGVVGAWLSRKLSVPAFASSLTSCGPRALLTLRPGVSLTGTKHNPFICTASFHTSAPLAKEDYYQILGVPRNASQKEIKKAYYQLAKKYHPDTNKDDPKAKEKFSQLAEAYEVLSDEVKRKQYDAYGSAGFDPGASGSQHSYWKGGPTVDPEELFRKIFGEFSSSSFGDFQTVFDQPQEYFMELTFNQAAKGVNKEFTVNIMDTCERCNGKGNEPGTKVQHCHYCGGSGMETINTGPFVMRSTCRRCGGRGSIIISPCVVCRGAGQAKQKKRVMIPVPAGVEDGQTVRMPVGKREIFITFRVQKSPVFRRDGADIHSDLFISIAQALLGGTARAQGLYETINVTIPPGTQTDQKIRMGGKGIPRINSYGYGDHYIHIKIRVPKRLTSRQQSLILSYAEDETDVEGTVNGVTLTSSGGSTMDSSAGSKARREAGEDEEGFLSKLKKMFTS [DNAJA3] | -0.0129 | 48.4 °C | 50.3 °C | -0.681 | 0.373 | -0.186
3 | MAAVKDSCGKGEMATGNGRRLHLGIPEAVFVEDVDSFMKQPGNETADTVLKKLDEQYQKYKFMELNLAQKKRRLKGQIPEIKQTLEILKYMQKKKESTNSMETRFLLADNLYCKASVPPTDKVCLWLGANVMLEYDIDEAQALLEKNLSTATKNLDSLEEDLDFLRDQFTTTEVNMARVYNWDVKRRNKDDSTKNKA [VBP1] | 0.513 | 53.1 °C | 53.4 °C | -3.96 | -5.3 | 0.453
4 | MKQLPVLEPGDKPRKATWYTLTVPGDSPCARVGHSCSYLPPVGNAKRGKVFIVGGANPNRSFSDVHTMDLGKHQWDLDTCKGLLPRYEHASFIPSCTPDRIWVFGGANQSGNRNCLQVLNPETRTWTTPEVTSPPPSPRTFHTSSAAIGNQLYVFGGGERGAQPVQDTKLHVFDANTLTWSQPETLGNPPSPRHGHVMVAAGTKLFIHGGLAGDRFYDDLHCIDISDMKWQKLNPTGAAPAGCAAHSAVAMGKHVYIFGGMTPAGALDTMYQYHTEEQHWTLLKFDTLLPPGRLDHSMCIIPWPVTCASEKEDSNSLTLNHEAEKEDSADKVMSHSGDSHEESQTATLLCLVFGGMNTEGEIYDDCIVTVVD [RABEPK] | -0.084 | 56.5 °C | 56 °C | -1.33 | -1.94 | 0.201
5 | MSLSDWHLAVKLADQPLTPKSILRLPETELGEYSLGGYSISFLKQLIAGKLQESVPDPELIDLIYCGRKLKDDQTLDFYGIQPGSTVHVLRKSWPEPDQKPEPVDKVAAMREFRVLHTALHSSSSYREAVFKMLSNKESLDQIIVATPGLSSDPIALGVLQDKDLFSVFADPNMLDTLVPAHPALVNAIVLVLHSVAGSAPMPGTDSSSRSMPSSSYRDMPGGFLFEGLSDDEDDFHPNTRSTPSSSTPSSRPASLGYSGAAGPRPITQSELATALALASTPESSSHTPTPGTQGHSSGTSPMSSGVQSGTPITNDLFSQALQHALQASGQPSLQSQWQPQLQQLRDMGIQDDELSLRALQATGGDIQAALELIFAGGAP [UBL7] | 0.156 | 50.8 °C | 50.8 °C | -0.52 | -0.245 | 0.396
6 | MELSQMSELMGLSVLLGLLALMATAAVARGWLRAGEERSGRPACQKANGFPPDKSSGSKKQKQYQRIRKEKPQQHNFTHRLLAAALKSHSGNISCMDFSSNGKYLATCADDRTIRIWSTKDFLQREHRSMRANVELDHATLVRFSPDCRAFIVWLANGDTLRVFKMTKREDGGYTFTATPEDFPKKHKAPVIDIGIANTGKFIMTASSDTTVLIWSLKGQVLSTINTNQMNNTHAAVSPCGRFVASCGFTPDVKVWEVCFGKKGEFQEVVRAFELKGHSAAVHSFAFSNDSRRMASVSKDGTWKLWDTDVEYKKKQDPYLLKTGRFEEAAGAAPCRLALSPNAQVLALASGSSIHLYNTRRGEKEECFERVHGECIANLSFDITGRFLASCGDRAVRLFHNTPGHRAMVEEMQGHLKRASNESTRQRLQQQLTQAQETLKSLGALKK [TBL2] | 0.307 | 51 °C | 50.4 °C | 0.379 | -0.532 | -0.571
7 | ATP5H | 0.46 | 54.9 °C | 52.9 °C | -5.39 | -6.92 | 0.0908
8 | MTSRFGKTYSRKGGNGSSKFDEVFSNKRTTLSTKWGETTFMAKLGQKRPNFKPDIQEIPKKPKVEEESTGDPFGFDSDDESLPVSSKNLAQVKCSSYSESSEAAQLEEVTSVLEANSKISHVVVEDTVVSDKCFPLEDTLLGKEKSTNRIVEDDASISSCNKLITSDKVENFHEEHEKNSHHIHKNADDSTKKPNAETTVASEIKETNDTWNSQFGKRPESPSEISPIKGSVRTGLFEWDNDFEDIRSEDCILSLDSDPLLEMKDDDFKNRLENLNEAIEEDIVQSVLRPTNCRTYCRANKTKSSQGASNFDKLMDGTSQALAKANSESSKDGLNQAKKGGVSCGTSFRGTVGRTRDYTVLHPSCLSVCNVTIQDTMERSMDEFTASTPADLGEAGRLRKKADIATSKTTTRFRPSNTKSKKDVKLEFFGFEDHETGGDEGGSGSSNYKIKYFGFDDLSESEDDEDDDCQVERKTSKKRTKTAPSPSLQPPPESNDNSQDSQSGTNNAENLDFTEDLPGVPESVKKPINKQGDKSKENTRKIFSGPKRSPTKAVYNARHWNHPDSEELPGPPVVKPQSVTVRLSSKEPNQKDDGVFKAPAPPSKVIKTVTIPTQPYQDIVTALKCRREDKELYTVVQHVKHFNDVVEFGENQEFTDDIEYLLSGLKSTQPLNTRCLSVISLATKCAMPSFRMHLRAHGMVAMVFKTLDDSQHHQNLSLCTAALMYILSRDRLNMDLDRASLDLMIRLLELEQDASSAKLLNEKDMNKIKEKIRRLCETVHNKHLDLENITTGHLAMETLLSLTSKRAGDWFKEELRLLGGLDHIVDKVKECVDHLSRDEDEEKLVASLWGAERCLRVLESVTVHNPENQSYLIAYKDSQLIVSSAKALQHCEELIQQYNRAEDSICLADSKPLPHQNVTNHVGKAVEDCMRAIIGVLLNLTNDNEWGSTKTGEQDGLIGTALNCVLQVPKYLPQEQRFDIRVLGLGLLINLVEYSARNRHCLVNMETSCSFDSSICSGEGDDSLRIGGQVHAVQALVQLFLERERAAQLAESKTDELIKDAPTTQHDKSGEWQETSGEIQWVSTEKTDGTEEKHKKEEEDEELDLNKALQHAGKHMEDCIVASYTALLLGCLCQESPINVTTVREYLPEGDFSIMTEMLKKFLSFMNLTCAVGTTGQKSISRVIEYLEHC [WAPL] | -0.133 | 48.1 °C | 49.9 °C | 0.873 | 2.77 | -0.00224
9 | MAPPGSSTVFLLALTIIASTWALTPTHYLTKHDVERLKASLDRPFTNLESAFYSIVGLSSLGAQVPDAKKACTYIRSNLDPSNVDSLFYAAQASQALSGCEISISNETKDLLLAAVSEDSSVTQIYHAVAALSGFGLPLASQEALSALTARLSKEETVLATVQALQTASHLSQQADLRSIVEEIEDLVARLDELGGVYLQFEEGLETTALFVAATYKLMDHVGTEPSIKEDQVIQLMNAIFSKKNFESLSEAFSVASAAAVLSHNRYHVPVVVVPEGSASDTHEQAILRLQVTNVLSQPLTQATVKLEHAKSVASRATVLQKTSFTPVGDVFELNFMNVKFSSGYYDFLVEVEGDNRYIANTVELRVKISTEVGITNVDLSTVDKDQSIAPKTTRVTYPAKAKGTFIADSHQNFALFFQLVDVNTGAELTPHQTFVRLHNQKTGQEVVFVAEPDNKNVYKFELDTSERKIEFDSASGTYTLYLIIGDATLKNPILWNVADVVIKFPEEEAPSTVLSQNLFTPKQEIQHLFREPEKRPPTVVSNTFTALILSPLLLLFALWIRIGANVSNFTFAPSTIIFHLGHAAMLGLMYVYWTQLNMFQTLKYLAILGSVTFLAGNRMLAQQAVKRTAH [RPN2] | -0.162 | 54 °C | 53.7 °C | 1.07 | 2.44 | 0.0246
10 | MEKSRMNLPKGPDTLCFDKDEFMKEDFDVDHFVSDCRKRVQLEELRDDLELYYKLLKTAMVELINKDYADFVNLSTNLVGMDKALNQLSVPLGQLREEVLSLRSSVSEGIRAVDERMSKQEDIRKKKMCVLRLIQVIRSVEKIEKILNSQSSKETSALEASSPLLTGQILERIATEFNQLQFHAVQSKGMPLLDKVRPRIAGITAMLQQSLEGLLLEGLQTSDVDIIRHCLRTYATIDKTRDAEALVGQVLVKPYIDEVIIEQFVESHPNGLQVMYNKLLEFVPHHCRLLREVTGGAISSEKGNTVPGYDFLVNSVWPQIVQGLEEKLPSLFNPGNPDAFHEKYTISMDFVRRLERQCGSQASVKRLRAHPAYHSFNKKWNLPVYFQIRFREIAGSLEAALTDVLEDAPAESPYCLLASHRTWSSLRRCWSDEMFLPLLVHRLWRLTLQILARYSVFVNELSLRPISNESPKEIKKPLVTGSKEPSITQGNTEDQGSGPSETKPVVSISRTQLVYVVADLDKLQEQLPELLEIIKPKLEMIGFKNFSSISAALEDSQSSFSACVPSLSSKIIQDLSDSCFGFLKSALEVPRLYRRTNKEVPTTASSYVDSALKPLFQLQSGHKDKLKQAIIQQWLEGTLSESTHKYYETVSDVLNSVKKMEESLKRLKQARKTTPANPVGPSGGMSDDDKIRLQLALDVEYLGEQIQKLGLQASDIKSFSALAELVAAAKDQATAEQP [COG2] | -0.0298 | 50.2 °C | 49.4 °C | 0.195 | 0.834 | 0.0645
11 | MARVLKAAAANAVGLFSRLQAPIPTVRASSTSQPLDQVTGSVWNLGRLNHVAIAVPDLEKAAAFYKNILGAQVSEAVPLPEHGVSVVFVNLGNTKMELLHPLGRDSPIAGFLQKNKAGGMHHICIEVDNINAAVMDLKKKKIRSLSEEVKIGAHGKPVIFLHPKDCGGVLVELEQA [MCEE] | 0.128 | 57.8 °C | 56.1 °C | -0.379 | -2.18 | 0.471
